According to US20110195494A1 (Boehringer Ingelheim, published 2011):
Read-outs that look alike come from different tables or passages of the source. Each block holds one binder with its values, some of them ahead of it.

Experiments:
[1] = target: T1, recombinant human DLL4, C-terminally His-tagged extracellular domain (R&D Systems) (human, UniProt Q9NR61 25-522, biotinylated where used in competition ELISA, AlphaScreen and on SA chips); experiment: competition ELISA, periplasmic extract
T1 construct: also called rhDLL4; hDLL4; not shown: C-terminal His tag
T1 sequence (Q9NR61 25-522): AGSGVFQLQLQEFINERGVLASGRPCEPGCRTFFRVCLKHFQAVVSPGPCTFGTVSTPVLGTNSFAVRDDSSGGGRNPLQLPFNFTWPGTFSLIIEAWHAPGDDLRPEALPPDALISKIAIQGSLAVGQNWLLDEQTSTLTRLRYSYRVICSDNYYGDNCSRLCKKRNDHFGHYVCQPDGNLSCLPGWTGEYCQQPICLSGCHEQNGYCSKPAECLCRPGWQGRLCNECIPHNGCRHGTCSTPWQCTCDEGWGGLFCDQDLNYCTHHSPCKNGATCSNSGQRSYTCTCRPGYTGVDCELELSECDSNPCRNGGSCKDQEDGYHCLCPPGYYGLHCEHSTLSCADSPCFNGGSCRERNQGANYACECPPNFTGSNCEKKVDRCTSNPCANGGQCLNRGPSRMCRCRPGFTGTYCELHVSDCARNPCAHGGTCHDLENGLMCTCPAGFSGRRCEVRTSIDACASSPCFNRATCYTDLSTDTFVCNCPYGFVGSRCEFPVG

[2] = target: T1, recombinant human DLL4, C-terminally …; experiment: hDLL4/hNotch1-Fc AlphaScreen, periplasmic extract
Experimental: Periplasmic extracts are screened in a human DII4/human Notch1 AlphaScreen assay to assess the blocking capacity of the expressed VHHs. Human DII4 is biotinylated using biotin (Sigma, St Louis, Mo., USA) and biotinamidohexanoic acid 3-sulfo-N-hydroxysuccinimide ester sodium salt (Sigma, St Louis, Mo., USA). […] To evaluate the neutralizing capacity of the VHHs, dilution series of the periplasmic extracts are pre-incubated with biotinylated human DII4. To this mixture, the acceptor beads and the streptavidin donor beads are added and further incubated for 1 hour at room temperature. Fluorescence is measured by reading plates on the Envision Multilabel Plate reader (Perkin Elmer, Waltham, Mass., USA) using an excitation wavelength of 680 nm and an emission wavelength of 520 nm.

[3] = target: T2, full length human DLL4 on overexpressing CHO or HEK293 cells (human, UniProt Q9NR61 27-685); experiment: FMAT competition: labelled hNotch1/Fc on CHO-hDLL4 cells
T2 construct: also called CHO-hDLL4; HEK293-hDII4
T2 sequence (Q9NR61 27-685 limits assumed): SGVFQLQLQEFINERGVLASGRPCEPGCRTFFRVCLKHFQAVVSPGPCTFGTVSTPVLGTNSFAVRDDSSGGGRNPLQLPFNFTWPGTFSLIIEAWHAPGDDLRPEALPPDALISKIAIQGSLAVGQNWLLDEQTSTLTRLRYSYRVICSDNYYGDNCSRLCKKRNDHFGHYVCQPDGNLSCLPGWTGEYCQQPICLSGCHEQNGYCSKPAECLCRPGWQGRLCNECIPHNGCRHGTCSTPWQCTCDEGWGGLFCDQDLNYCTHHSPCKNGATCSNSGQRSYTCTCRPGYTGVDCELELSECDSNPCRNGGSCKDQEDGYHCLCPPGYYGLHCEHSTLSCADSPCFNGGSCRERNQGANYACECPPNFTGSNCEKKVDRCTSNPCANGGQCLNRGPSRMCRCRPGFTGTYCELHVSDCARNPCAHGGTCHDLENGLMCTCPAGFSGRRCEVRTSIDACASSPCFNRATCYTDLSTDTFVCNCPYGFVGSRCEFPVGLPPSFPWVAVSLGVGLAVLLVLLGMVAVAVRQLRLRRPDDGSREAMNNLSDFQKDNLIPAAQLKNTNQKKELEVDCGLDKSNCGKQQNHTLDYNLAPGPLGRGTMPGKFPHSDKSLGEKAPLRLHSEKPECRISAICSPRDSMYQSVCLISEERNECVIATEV
Description: (§1) All calculations are based on the FL1 total signal which comprises the average of the fluorescence per well times the number of counts per well.

[4] = target: T3, full length mouse DLL4 on overexpressing CHO or HEK293 cells (mouse, UniProt Q9JI71 27-686); experiment: FMAT competition: labelled hNotch1/Fc on CHO-mDLL4 cells
T3 construct: whole, on cells; also called CHO-mDLL4; mDLL4
T3 sequence (Q9JI71 27-686): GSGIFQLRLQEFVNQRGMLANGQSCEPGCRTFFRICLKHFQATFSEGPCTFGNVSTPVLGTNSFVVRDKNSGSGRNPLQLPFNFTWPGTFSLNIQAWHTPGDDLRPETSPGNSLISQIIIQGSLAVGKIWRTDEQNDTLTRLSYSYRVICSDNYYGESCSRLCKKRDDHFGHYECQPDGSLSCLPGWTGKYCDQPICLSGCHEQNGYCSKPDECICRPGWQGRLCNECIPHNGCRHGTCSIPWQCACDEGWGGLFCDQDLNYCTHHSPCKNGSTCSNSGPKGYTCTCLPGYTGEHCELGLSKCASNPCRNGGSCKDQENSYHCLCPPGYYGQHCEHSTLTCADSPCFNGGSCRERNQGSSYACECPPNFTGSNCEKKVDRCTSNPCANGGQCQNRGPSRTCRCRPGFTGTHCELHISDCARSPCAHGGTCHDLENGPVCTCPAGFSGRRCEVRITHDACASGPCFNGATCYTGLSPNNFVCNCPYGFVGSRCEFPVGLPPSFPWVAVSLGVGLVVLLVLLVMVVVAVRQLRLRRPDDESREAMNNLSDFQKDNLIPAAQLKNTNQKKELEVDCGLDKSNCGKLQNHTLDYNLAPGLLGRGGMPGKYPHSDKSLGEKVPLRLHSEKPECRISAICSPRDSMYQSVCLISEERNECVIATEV
Description: as §1

[5] = target: T2, full length human DLL4 on …; experiment: FMAT, hNotch1/Fc on CHO-hDLL4, periplasmic extract
Description: as §1

[6] = target: T3, full length mouse DLL4 on …; experiment: FMAT, hNotch1/Fc on CHO-mDLL4, periplasmic extract
Description: as §1

human DLL1 (Alexis) [7] = target: T4, human DLL1 (Alexis) (human, UniProt O00548 18-545, limits assumed); experiment: binding ELISA, coated rhDLL1
T4 construct: also called hDLL1; rhDLL1
T4 sequence (looked up): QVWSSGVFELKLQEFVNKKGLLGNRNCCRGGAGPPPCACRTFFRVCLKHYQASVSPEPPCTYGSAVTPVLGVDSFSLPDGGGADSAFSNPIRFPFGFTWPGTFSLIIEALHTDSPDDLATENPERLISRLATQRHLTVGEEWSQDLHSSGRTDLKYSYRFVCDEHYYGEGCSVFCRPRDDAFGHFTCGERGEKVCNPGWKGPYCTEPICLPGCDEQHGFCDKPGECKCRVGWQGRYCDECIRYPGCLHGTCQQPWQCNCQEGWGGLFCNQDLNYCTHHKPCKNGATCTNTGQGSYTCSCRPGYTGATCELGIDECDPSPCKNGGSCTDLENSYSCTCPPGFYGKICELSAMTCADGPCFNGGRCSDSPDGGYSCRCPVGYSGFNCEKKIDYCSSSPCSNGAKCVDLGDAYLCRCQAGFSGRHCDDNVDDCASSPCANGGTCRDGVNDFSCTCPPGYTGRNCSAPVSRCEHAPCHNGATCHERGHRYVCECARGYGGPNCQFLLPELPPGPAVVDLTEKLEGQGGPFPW

[8] = target: T1, recombinant human DLL4, C-terminally …; experiment: binding ELISA, coated rhDLL4
human Jagged-1 (Alexis) [9] = target: T5, human Jagged-1 (Alexis) (human, UniProt P78504 34-1067, limits assumed); experiment: binding ELISA, coated rhJagged-1
T5 construct: also called hJag-1; hJAG1

human DLL1 (Alexis) [10] = target: T4, human DLL1 (Alexis); experiment: binding ELISA, coated rhDLL1; remark: listed apart in the source
human Jagged-1 (Alexis) [11] = target: T5, human Jagged-1 (Alexis); experiment: binding ELISA, coated rhJagged-1; remark: listed apart in the source

- ELISA hDLL4 % inhibition [1]: 23%
- Alpha Screen hDLL4 % inhibition [2]: 54%
B1: DLLBII28B06 (VHH)
VHH: EVQLVESGGGLVQAGGSLRLSCAASGSTFSTYAMGWYRQDPGNQRELVAAISSDGSTHYADSVKGRFTISRDNAKNTVYLQMNSLKPEDTAVYYCYAPVKVAGLEYDYWGQGTQVTVSS
notes: tested as periplasmic extract; also called DLLBII28B6; not shown: C-terminal c-myc tag and His6 tag

- binding result [3]: binds
- IC50 (read off the curve) [4]: ~0.04 µM
B2: 83G04 (VHH)
VHH: EVQLVESGGGLVKPGGSLRLSCAASGRTLYIMGWYRQAPGKEREFVAGISRYGDITYAADSVKGRFTISRDSVKNTVYLRMNSLKPDDTAVYYCAANGGYCSGYGCYEDSGQYDYWGQGTQVTVSS
notes: also called DLLBII83G04

- ELISA hDLL4 % inhibition [1]: 98%
- Alpha Screen hDLL4 % inhibition [2]: 88%
B3: DLLBII17F10 (VHH)
VHH: EVQLVESGGGLVQAGGSLRLSCASSGRTLLNYAMGWFRQAPGKEREFVSGINWSGGSTYYADSVKGRFTISRDNAENTVYLHMNSLKPEDTAVYYCAAAHDNYWFTDDSLGRGLKYWGQGTQVTVSS
notes: not shown: C-terminal c-myc tag and His6 tag

- binding result [3]: binds
- binding result [4]: binds
B4: 78B03 (VHH)
VHH: EVQLVESGGGLVQAGGSLRLSCAASGRTFSNYIMGWFRQAPGKEREFVAGISRYGDYTAYADSVKGRFTISRDNVKNTVYLRMNSLKPDDTAVYYCAANEGYCSGYGCYEDSGQYDYWGQGTQVTVSS
notes: also called DLLBII78B03

- FMAT hDLL4 % inhibition [5]: 87%
- FMAT mDLL4 % inhibition [6]: 93%
- IC50 (read off the curve) [4]: ~0.05 µM
B5: DLLBII83G01 (VHH)
VHH: EVQLVESGGGLVQAGGSLRLSCAASGRTFSNYIMGWFRQAPGKEREFVAGISRYADYTGYADSVKGRFTISRDNVKNTVYLRMNSLKPDDTAVYYCAANEGYCSGYGCYEDSGQYDYWGQGTQVTVSS
notes: tested as periplasmic extract; also called DLLBII83G1; not shown: C-terminal c-myc tag and His6 tag

- ELISA hDLL4 % inhibition [1]: 98%
- Alpha Screen hDLL4 % inhibition [2]: 98%
B6: DLLBII19F12 (VHH)
VHH: EVQLVESGGGLVQAGGSLRLSCTASGSTFTSYAMGWYRQAPGKQRELVAAISSDDSTYYADCVKGRFTISRDNAKNTVYLQMNSLKPEDTAVYYCNAPHSDYDEEAPSDFGSWGQGTQVTVSS
notes: tested as periplasmic extract; not shown: C-terminal c-myc tag and His6 tag

- ELISA hDLL4 % inhibition [1]: 93%
- Alpha Screen hDLL4 % inhibition [2]: 82%
B7: DLLBII17G10 (VHH)
VHH: EVQLVESGGGLVQAGGSLRLSCAASGSTFSSYAMGWYRHQAPGKQRELVAAISSDGSTHYADSVKGRFTISRDNAKNTMYLQMNSLKPEDTAVYYCNTKTFGSNWYDDYWGQGTQVTVSS
notes: as for B6

- FMAT hDLL4 % inhibition [5]: 94%
- FMAT mDLL4 % inhibition [6]: 86%
- IC50 (read off the curve) [4]: 0.064 to 0.07 µM
B8: DLLBII104G01 (VHH)
VHH: EVQLVESGGGLVQAGGSLRLSCAASGFTFDDYAIGWFRQAPGKEREGVSCISSSDGSTYYADSVKGRFTISSDNAKNTVYLQMNSLKPEDTAVYYCATAWCDSSWYRSFVGYWGQGTQVTVSS
notes: also called DLLBII104G1; 104G1; not shown: C-terminal c-myc tag and His6 tag

- ELISA hDLL4 % inhibition [1]: 98%
- Alpha Screen hDLL4 % inhibition [2]: 95%
B9: DLLBII19F04 (VHH)
VHH: EVQLVESGGGLVQAEGSLRLSCAASGSTFSTYAMAWYRQAPGKQRELVAGISFDGSTHYAESVKGRFTISRDDAKNTVSLQMNSLKPEDAAVYYCYSVHPSTGFGSWGQGTQVTVSS
notes: also called DLLBII19F4; not shown: C-terminal c-myc tag and His6 tag

- ELISA hDLL4 % inhibition [1]: 82%
- Alpha Screen hDLL4 % inhibition [2]: 84%
B10: DLLBII17C01 (VHH)
VHH: EVQLVESGGGLVQAGGSLRLSCAASGFTFDDYPIGWLRQAPGKEREGVSCISSSDDSTYYADSVKGRFTISSNNAKNTVYLQMNSLKPEDTAVYYCAVRLFSGGCAVVAGTSWADFGSSGQGTQVTVSS
notes: tested as periplasmic extract; also called DLLBII17C1; not shown: C-terminal c-myc tag and His6 tag

- binding result (human DLL1 (Alexis) [7]): no binding (tested: 1e-6 M)
- EC50 (read off the curve) [8]: ~0.0006 µM
- binding result (human Jagged-1 (Alexis) [9]): no binding (tested: 1e-6 M)
B11: DLLBII129B05 (VHH)
VHH: EVQLVESGGGLVQAGGSLRLSCAASGRTFSSYAMAWYRQAPGKEREYVAAIRWSGGTAYYADSVQGRFTISRDNAKNTVYLQMNSLKPEDTAVYYCANRAPDTRLAPYEYDHWGQGTQVTVSS
notes: not shown: C-terminal c-myc tag and (His)6 tag

- binding result (human DLL1 (Alexis) [7]): no binding (tested: 1e-6 M)
- EC50 (read off the curve) [8]: ~0.0006 µM
- binding result (human Jagged-1 (Alexis) [9]): no binding (tested: 1e-6 M)
B12: DLLBII129E11 (VHH)
VHH: EVQLVESGGGLVQAGGSLRLSCAASGRTFSSYAMAWYRQAPGKEREYVAAIRWSGGTAYYADSVQGRFTISRDNAKNTVYLQMNSLKPEDTAVYYCANRAPDTRLRPYLYDYWGQGTQVTVSS
notes: as for B11

- binding result (human DLL1 (Alexis) [7]): no binding (tested: 1e-6 M)
- EC50 (read off the curve) [8]: ~0.0006 µM
- binding result (human Jagged-1 (Alexis) [9]): no binding (tested: 1e-6 M)
B13: DLLBII129D08 (VHH)
VHH: EVQLVESGGGLVQAGGSLRLSCAASGRTFSSYAMAWYRQAPGKEREYVAAIRWSGGTAYYADSVQGRFTISRDNAKNTVYLQMNSLKPEDTAVYYCANRAPDTRLEPYLYDYWGQGTQVTVSS
notes: as for B11

- ELISA hDLL4 % inhibition [1]: 76%
- Alpha Screen hDLL4 % inhibition [2]: 77%
B14: DLLBII17B03 (VHH)
VHH: EVQLVESGGGLVQPGGSLRLSCAASGFTFENYALGWFRQAPGKEREWVSCISSSDGTTYYADSVKGRFTISRDNVKNTVYLQMNRLKPEDTAIYYCALSLGSSWCAYDYWGQGTQVTVSS
notes: tested as periplasmic extract; also called DLLBII17B3; not shown: C-terminal c-myc tag and His6 tag

- binding result (human DLL1 (Alexis) [10]): no binding (tested: 1e-6 M)
- binding result (human Jagged-1 (Alexis) [11]): no binding (tested: 1e-6 M)
B15: DLLBII015 (VHH)
VHH: EVQLVESGGGLVQPGGSLRLSCAASGFTIGSYDMSWVRRSPGKGPEWVSAINSGGGSTYYADYVKGRFTISRDNAKNTLYLQMNSLKPEDTAVYYCAADRYIWARQGEYWGAYAYDYWGQGTQVTVSS
notes: as for B11

- binding result (human DLL1 (Alexis) [10]): no binding (tested: 1e-6 M)
- binding result (human Jagged-1 (Alexis) [11]): no binding (tested: 1e-6 M)
B16: DLLBII136C07 (VHH)
VHH: EVQLVESGGGLVQPGGSLRLSCAASGFTFGSYDMSWVRRSPGKGPEWVSSINSGGGSTYYADYVKGRFTISRDNAKNTLYLQMNSLKPEDTAVYYCAADRYIWARQGEYWGAYEYDYWGQGTQVTVSS
notes: as for B11

- binding result (human DLL1 (Alexis) [10]): no binding (tested: 1e-6 M)
- binding result (human Jagged-1 (Alexis) [11]): no binding (tested: 1e-6 M)
B17: DLLBII133A09 (VHH)
VHH: EVQLVESGGGLVQPGGSLRLSCAASGFTFGSYDMSWVRRSPGKGPEWVSAINSGGGSTYYADYVKGRFTISRDNAKNTLYLQMNSLKPEDTAVYYCAADRYIWARQGEYWGAYAYDYWGQGTQVTVSS
notes: as for B11

- binding result (human DLL1 (Alexis) [10]): no binding (tested: 1e-6 M)
- binding result (human Jagged-1 (Alexis) [11]): no binding (tested: 1e-6 M)
B18: DLLBII133G05 (VHH)
VHH: EVQLVESGGGLVQPGGSLRLSCAASGFTFGSYDMSWVRRSPGKGPEWVSAINSGGGSTYYTDYVKGRFTISRDNAKNTLYLQMNSLKPEDTAVYYCAADRYIWARQGEYWGAYAYDYWGQGTQVTVSS
notes: as for B11
